Reference: patent US20200247886A1

Target: human CD47 expressed on cells (CD47 expressing CHO cells, Jurkat, HL60, DLD1, Raji) (human) (UniProt Q08722)
Assay: flow cytometry on human red blood cells, donor 2, MFI; EC50 (nM) table beside the legend; control whose curve stays low

## IgG (antibody)
  EC50: 0.08 nM
